Source: publication PMC4752722 (Cell, 2016)

Target: the molecule itself
Experiment: cross-linking

B1: CorA double cysteine mutant V183C/A8C (natural protein, Thermotoga maritima)
chain: MEEKRLSCKKGLPPGTLVYTGKYREDFEIEVMNYSIEEFREFKTTDVESVLPFRDSSTPTWINITGIHRTDVVQRVGEFFGIHPLVLEDILNVHQRPKVEFFENYVFIVLKMFTYDKNLHELESEQVSLILTKNCVLMFQEKIGDVFDPVRERIRYNRGIIRKKRADYLLYSLIDALVDDYFCLLEKIDDEIDVLEEEVLERPEKETVQRTHQLKRNLVELRKTIWPLREVLSSLYRDVPPLIEKETVPYFRDVYDHTIQIADTVETFRDIVSGLLDVYLSSVSNKTNEVMKVLTIIATIFMPLTFIAGIYGMNFEYMPELRWKWGYPVVLAVMGVIAVIMVVYFKKKKWL
  stoichiometry N: 5
